Reference: patent US8632989B1, “Mutant insulin degrading enzyme and methods of use” (University of Kentucky Research Foundation, priority 2011, dated 2014)

Legend:
[1] = target: T1, IDE (Rattus norvegicus, UniProt P35559); assay: γ-methylene-ATP versus ATP activation of IDE-dependent hydrolysis of Abz-[…]-EDDnp; type: biochemical; settings: 10 μM substrate, compared with ATP
T1 construct: hexahistidine (N); made in house; host or cells: Sf9 insect cells (baculovirus, pFastBac HTb)
T1 sequence (P35559 41-1019): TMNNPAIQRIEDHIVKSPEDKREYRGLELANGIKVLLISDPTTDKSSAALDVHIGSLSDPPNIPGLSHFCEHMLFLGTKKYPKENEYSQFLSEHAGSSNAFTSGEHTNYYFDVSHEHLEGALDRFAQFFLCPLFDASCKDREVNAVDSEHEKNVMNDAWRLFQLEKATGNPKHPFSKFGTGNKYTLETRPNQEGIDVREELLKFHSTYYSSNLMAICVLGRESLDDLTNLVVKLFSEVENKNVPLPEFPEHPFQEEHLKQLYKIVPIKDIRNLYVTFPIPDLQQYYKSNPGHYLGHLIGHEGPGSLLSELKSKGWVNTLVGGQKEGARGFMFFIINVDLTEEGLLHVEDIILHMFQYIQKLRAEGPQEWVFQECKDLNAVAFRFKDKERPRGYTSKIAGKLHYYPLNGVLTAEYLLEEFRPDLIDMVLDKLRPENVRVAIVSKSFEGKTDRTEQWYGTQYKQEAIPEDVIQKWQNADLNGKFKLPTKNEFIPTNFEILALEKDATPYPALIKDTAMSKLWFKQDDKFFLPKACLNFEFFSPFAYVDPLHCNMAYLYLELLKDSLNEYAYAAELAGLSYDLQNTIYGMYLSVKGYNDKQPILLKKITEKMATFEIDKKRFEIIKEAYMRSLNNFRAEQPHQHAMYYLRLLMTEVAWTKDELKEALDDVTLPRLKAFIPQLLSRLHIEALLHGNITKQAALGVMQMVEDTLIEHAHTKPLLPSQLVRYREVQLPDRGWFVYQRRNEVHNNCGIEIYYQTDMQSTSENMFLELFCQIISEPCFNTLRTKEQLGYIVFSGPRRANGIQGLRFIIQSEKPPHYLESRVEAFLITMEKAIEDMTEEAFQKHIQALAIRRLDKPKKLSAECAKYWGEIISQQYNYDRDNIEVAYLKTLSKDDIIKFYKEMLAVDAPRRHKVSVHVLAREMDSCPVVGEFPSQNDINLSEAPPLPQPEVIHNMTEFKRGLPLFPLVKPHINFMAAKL
Protocol: Activity was determined in 50 mM Tris-HCl, pH 7.4 with 10 μM Abz-[…]-EDDnp (SEQ ID NO:3) as substrate and indicated concentrations of ATP or γ-methylene-ATP. Reactions contained 0.1 μg of protein.
(§1) IDE activity was determined by measuring the increase in fluorescence that occurs when the enzyme cleaves the internally quenched fluorogenic substrate Abz-[…]-EDDnp (SEQ ID NO:3) at the R—K bond (Song et al., Journal of Biologial Chemistry 276, 1152-1155 (2001)). The reaction was followed on a SpectraMax Gemini XS fluorescence plate reader using an excitation and emission wavelengths of 318 nm and 419 nm, respectively. Initial velocities were determined using SoftMax Pro 4.0 and kinetic constants calculated using GraphPad Prism 4.0. ATPase activity was measured by following Pi release with acid-molybdate as described by Harder et al. (Harder et al., Biochemical Journal 298 (Pt 2), 395-401 (1994)).

[2] = TNP-ATP fluorescence measurements, IDE and ATP binding site mutants; settings: 1.5 μM enzyme, 10 μM TNP-ATP, λexc=403 nm
Protocol: Fluorescence emission spectra were recorded on a Perkin-Elmer LS 55 Luminescence spectrometer with 1.5 μM of IDE, IDE^R429S or IDE^K898A,K899A,S901A in 50 mM Tris-HCl, pH 7.4 with 10 μM TNP-ATP. Fluorescence spectra were recorded with a λexc=403 nm.
TNP-ATP [2′,3′-O-(2,4,6-Trinitrophenyl)adenosine-5′-triphosphate] fluorescence was monitored at excitation and emission wavelengths of 403 nm and 547 nm, respectively, using a Perkin-Elmer LS55 Luminescence Spectrometer at 20±0.1° C. TNP-ATP (Molecular Probes, Inc.) as supplied was diluted to 4 mM with 50 mM Tris-HCl, pH 7.4, and added to achieve the indicated concentrations.

[3] = system: Saccharomyces cerevisiae; assay: IDE activity assay in yeast, serial dilution mating test; type: cell-based; settings: yeast assays
Protocol: Panel A depicts immunoblot of yeast-expressed IDE and IDE^K898A,K899A,S901A. Equivalent percentage amounts of total cellular extracts from yeast containing an empty expression vector or plasmids encoding IDE or the IDE^K898A,K899A,S901A mutant were analyzed by SDS-PAGE and immunoblotting using an IDE-specific antibody. […] An excess of MATa yeast were mixed with decreasing numbers of MATa cells deficient for Axl1p and Step 23p that were transformed with either an empty expression vector or a vector encoding IDE or IDE^K898A,K899A,S901A as indicated. Mating, which leads to colony growth, is dependent on production of mature a-factor pheromone by plasmid-encoded IDE. […] Concentrated samples of a-factor recovered from yeast bearing the indicated expression vector were spotted at the indicated dilutions on a lawn of RC757 MATa cells, which undergo growth arrest upon exposure to a-factor pheromone. […]
The assays take advantage of the ability of IDE, in lieu of the yeast M16 metallopeptidases Axl1p and Step 23p, to participate in the proteolytic maturation of yeast a-factor mating pheromone. […] Growth of diploid colonies, indicative of mating, was scored 3 days after incubation of plates at 30° C. […] Results of mating tests and halo assays were recorded by scanning plates with a Microtek flatbed scanner and importing digitized images into Photoshop and PowerPoint.

[4] = system: Abz-GGFLRKHGQ-EDDnp; assay: Enzyme activity assay, kinetics of IDE and ATP binding site mutants with fluorogenic substrate; type: biochemical; settings: rat IDE, Abz-GGFLRKHGQ-EDDnp as substrate
Protocol: Reactions were conducted in 50 mM Tris-HCl, pH 7.4.
as §1

[5] = system: Abz-GGFLRKHGQ-EDDnp; assay: Effect of bradykinin on Abz-[…]-EDDnp hydrolysis, IDE and ATP binding site mutants; type: biochemical; settings: 10 μM substrate, bradykinin as activator
Protocol: Activity was determined in 50 mM Tris-HCl, pH 7.4 with 10 μM Abz-[…]-EDDnp (SEQ ID NO:3) as substrate and indicated concentrations of bradykinin. Reactions contained 0.5 μg of protein.
as §1

[6] = system: Abz-GGFLRKHGQ-EDDnp; assay: Activation by ATP of Abz-[…]-EDDnp hydrolysis, IDE and ATP binding site mutants; type: biochemical; settings: 10 μM Abz-GGFLRKHGQ-EDDnp as substrate
Protocol: Activity was determined in 50 mM Tris-HCl, pH 7.4 with 10 μM Abz-[…]-EDDnp (SEQ ID NO:3) as substrate at the indicated concentrations of ATP (panel A), PPPi (panel B) or, TNP-ATP (panel C). Each reaction contained 0.5 μg of enzyme.
as §1

Molecule: Nc1ncnc2c1ncn2[C@@H]1O[C@H](COP(=O)(O)OP(=O)(O)CP(=O)(O)O)[C@@H](O)[C@H]1O [γ-methylene ATP]
- ability to activate Abz-GGFLRKHGQ-EDDnp hydrolysis by IDE [1]: nearly as well as ATP

B1: IDE^K898A,K899A,S901A: Rat IDE residues 41-1019 bearing the mutations K898A, K899A, S901A; ATP binding site mutant (protein, listed as Rattus norvegicus)
chain: MRNGLVWLLHPALPSTLHSILGARPPPVKRLCGFPKQIYSTMNNPAIQRIEDHIVKSPEDKREYRGLELANGIKVLLISDPTTDKSSAALDVHIGSLSDPPNIPGLSHFCEHMLFLGTKKYPKENEYSQFLSEHAGSSNAFTSGEHTNYYFDVSHEHLEGALDRFAQFFLCPLFDASCKDREVNAVDSEHEKNVMNDAWRLFQLEKATGNPKHPFSKFGTGNKYTLETRPNQEGIDVREELLKFHSTYYSSNLMAICVLGRESLDDLTNLVVKLFSEVENKNVPLPEFPEHPFQEEHLKQLYKIVPIKDIRNLYVTFPIPDLQQYYKSNPGHYLGHLIGHEGPGSLLSELKSKGWVNTLVGGQKEGARGFMFFIINVDLTEEGLLHVEDIILHMFQYIQKLRAEGPQEWVFQECKDLNAVAFRFKDKERPRGYTSKIAGKLHYYPLNGVLTAEYLLEEFRPDLIDMVLDKLRPENVRVAIVSKSFEGKTDRTEQWYGTQYKQEAIPEDVIQKWQNADLNGKFKLPTKNEFIPTNFEILALEKDATPYPALIKDTAMSKLWFKQDDKFFLPKACLNFEFFSPFAYVDPLHCNMAYLYLELLKDSLNEYAYAAELAGLSYDLQNTIYGMYLSVKGYNDKQPILLKKITEKMATFEIDKKRFEIIKEAYMRSLNNFRAEQPHQHAMYYLRLLMTEVAWTKDELKEALDDVTLPRLKAFIPQLLSRLHIEALLHGNITKQAALGVMQMVEDTLIEHAHTKPLLPSQLVRYREVQLPDRGWFVYQRRNEVHNNCGIEIYYQTDMQSTSENMFLELFCQIISEPCFNTLRTKEQLGYIVFSGPRRANGIQGLRFIIQSEKPPHYLESRVEAFLITMEKAIEDMTEEAFQKHIQALAIRRLDKPAALAAECAKYWGEIISQQYNYDRDNIEVAYLKTLSKDDIIKFYKEMLAVDAPRRHKVSVHVLAREMDSCPVVGEFPSQNDINLSEAPPLPQPEVIHNMTEFKRGLPLFPLVKPHINFMAAKL
modifications: wild-type Insulin Degrading Enzyme (IDE) from rat
- fluorescence associated with TNP-ATP binding, relative to wild type IDE [2]: lower fluorescent yield
- intracellular function relative to unmodified IDE [3]: reduced intracellular function
- Hill coefficient [4]: 1.7 ± 0.1
- Km [4]: 17.3 ± 1 mM
- kcat [4]: 0.258 ± 0.01 s⁻¹
- Vmax ([4]; 50 mM Tris-HCl, pH 7.4): 140.8 ± 5.5 nmol/min/mg
- rate of Abz-GGFLRKHGQ-EDDnp hydrolysis with bradykinin, relative to wild type IDE [5]: significantly reduced
- level of activation by ATP, of the wild type value [6]: even less activation
